Tests used:
chymase (recombinant) [1] = molecular target: T1, chymase (recombinant) (UniProt P23946 P23946:22-247); experiment: SPR; stronger than 30N; solution C; chymase preparation for SPR not specified; conditions: tags: SIGMA, expressed in yeast
T1 sequence: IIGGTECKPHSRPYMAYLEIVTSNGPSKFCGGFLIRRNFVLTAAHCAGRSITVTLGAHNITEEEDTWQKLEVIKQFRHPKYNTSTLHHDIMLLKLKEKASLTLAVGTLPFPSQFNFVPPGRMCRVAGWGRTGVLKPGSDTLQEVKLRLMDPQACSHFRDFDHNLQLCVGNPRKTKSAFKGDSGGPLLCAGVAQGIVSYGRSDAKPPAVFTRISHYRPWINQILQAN
Procedure: The binding activities against chymase of the nucleic acids shown by SEQ ID NO: 4-20 and 22-34 were determined by the surface plasmon resonance method using Biacore T100 (manufactured by GE Healthcare). The sensor chip used was the SA chip, which had streptavidin immobilized thereon. Bound thereto was about 1500 RU of a 16-nucleotide Poly dT with biotin bound to the 5' end thereof. […] 20 μL of chymase for analyte, prepared at 0.2 μM, was injected. Solution A was used as a running buffer.
The binding activities against chymase of the nucleic acids shown by SEQ ID NO: 38-48 were evaluated by the surface plasmon resonance method. In the evaluations for SEQ ID NO: 38-48, measurements were taken in the same manner as Example 1. Solution C was used as a running buffer.

chymase (recombinant) [2] = molecular target: T1, chymase (recombinant); experiment: inhibition; SPR not determined; conditions: tags: SIGMA, expressed in yeast
Procedure: (§1) Here, Suc is a protecting succinyl group, and MCA is a 4-methylcoumaryl-7-amide group; upon cleavage of the C-terminal side of phenylalanine, AMC (7-amino-4-methyl-coumarine) is released. By detecting the fluorescence of this AMC, the enzyme activity of chymase can be determined. The assay was performed using a 96-well plate (F16 Black Maxisorp Fluoronunc, manufactured by Nunc), with a reaction mixture volume of 100 μL, in solution C as a buffer solution. First, each nucleic acid was serially diluted to 0.0027-2 μM concentrations in solution C to obtain 50 μL solutions. After 10 μL of the 1 mM substrate prepared in solution C was added thereto, the plate was set to the microplate reader SpectraMax190 (manufactured by Molecular Devices Corporation), and incubated at 37° C. for 5 minutes. […] The plate containing the reaction mixture was set to the microplate reader SpectraMax190 (manufactured by Molecular Devices Corporation), and examined for time-dependent changes in the fluorescence intensity at 37° C. for 5 minutes (or 30 minutes) (excitation wavelength 380 nm, detection wavelength 460 nm). A linear approximation of the increase in the fluorescence of the AMC released from the substrate by chymase activity was generated, and its slope was taken as the initial velocity ($Vmax$). […]
The inhibitory activity on chymase was measured in the same manner as in Example 3.

chymase (recombinant) [3] = molecular target: T1, chymase (recombinant); experiment: inhibition; SPR not determined; conditions: tags: SIGMA, expressed in yeast; remark: listed apart in the source
Procedure: as §1, with “minutes. Separately, 0.05 μg (or 0.005 μg) of chymase (recombinant, manufactured by SIGMA) was diluted in solution C to obtain a 40 μL chymase solution, and incubated at 37° C. for 5 minutes.” for “minutes.”, “[…]. For control, samples were treated and analyzed in the same manner in two cases: use of a 30N or 40N (a nucleotide of 30 or 40 consecutive bases represented by N; N is A, G, C or T) nucleic acid pool (negative control), and use of chymostatin, a known chymotrypsin-like serine protease inhibitor (positive control). Taking the initial reaction velocity without the nucleic acid and inhibitor (V_0) as a 100% enzyme activity, the inhibitory rate of each test substance was calculated using the following equation:” for “($Vmax$).”
(§2) The chymase inhibitory activity was measured in the same manner as in Example 3.

chymase (recombinant) [4] = molecular target: T1, chymase (recombinant); experiment: inhibition; SPR ++; conditions: tags: SIGMA, expressed in yeast
Procedure: (§3) Here, Suc is a protecting succinyl group, and MCA is a 4-methylcoumaryl-7-amide group; upon cleavage of the C-terminal side of phenylalanine, AMC (7-amino-4-methyl-coumarine) is released. By detecting the fluorescence of this AMC, the enzyme activity of chymase can be determined. The assay was performed using a 96-well plate (F16 Black Maxisorp Fluoronunc, manufactured by Nunc), with a reaction mixture volume of 100 μL, in solution C as a buffer solution. First, each nucleic acid was serially diluted to 0.0027-2 μM concentrations in solution C to obtain 50 μL solutions. After 10 μL of the 1 mM substrate prepared in solution C was added thereto, the plate was set to the microplate reader SpectraMax190 (manufactured by Molecular Devices Corporation), and incubated at 37° C. for 5 minutes. Separately, 0.05 μg (or 0.005 μg) of chymase (recombinant, manufactured by SIGMA) was diluted in solution C to obtain a 40 μL chymase solution, and incubated at 37° C. for 5 minutes. The chymase solution was added to the mixture of the nucleic acid and substrate to initiate an enzyme reaction. The final chymase concentration in the reaction mixture was 16.7 nM (or 1.67 nM), the final substrate concentration being 100 μM. The plate containing the reaction mixture was set to the microplate reader SpectraMax190 (manufactured by Molecular Devices Corporation), and examined for time-dependent changes in the fluorescence intensity at 37° C. for 5 minutes (or 30 minutes) (excitation wavelength 380 nm, detection wavelength 460 nm). A linear approximation of the increase in the fluorescence of the AMC released from the substrate by chymase activity was generated, and its slope was taken as the initial velocity […]. For control, samples were treated and analyzed in the same manner in two cases: use of a 30N or 40N (a nucleotide of 30 or 40 consecutive bases represented by N; N is A, G, C or T) nucleic acid pool (negative control), and use of chymostatin, a known chymotrypsin-like serine protease inhibitor (positive control). Taking the initial reaction velocity without the nucleic acid and inhibitor (V_0) as a 100% enzyme activity, the inhibitory rate of each test substance was calculated using the following equation: […]
as §2

[5] = molecular target: T2, chymase (native, human skin mast cell) (Homo sapiens, UniProt P23946 P23946:22-247); experiment: inhibition; angiotensin I substrate; recombinant 0.037 uM; conditions: tags: Calbiochem
T2 sequence: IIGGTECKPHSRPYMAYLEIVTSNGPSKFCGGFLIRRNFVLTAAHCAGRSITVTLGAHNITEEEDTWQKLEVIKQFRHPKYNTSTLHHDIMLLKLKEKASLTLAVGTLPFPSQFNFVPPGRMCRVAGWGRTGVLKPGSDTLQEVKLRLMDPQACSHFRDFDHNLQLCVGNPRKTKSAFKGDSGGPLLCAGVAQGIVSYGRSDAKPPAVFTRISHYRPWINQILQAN
Procedure: (§4) The total volume of solution for an enzyme reaction in the assay was set to 50 μL, and the reaction was performed in solution C buffer. First, 0.3-0.75 ng of chymase (recombinant, (manufactured by SIGMA) or native (manufactured by Calbiochem)) was diluted with solution C to give 5 μL thereof. Here, the recombinant is chymase expressed by yeast, and the native is chymase purified from human skin mast cell. The nucleic acid was serially diluted with solution C at a concentration of 0.0027-2 μM to give 25 μL thereof. The chymase solution (5 μL) and the nucleic acid solution (25 μL) were mixed, and the mixture was incubated at 37° C. for 5 min. […] The whole mixture was centrifuged at 4° C., 14000 rpm for 10 min, and the supernatant (30 μL) was used for the next fluorescence induction reaction.
(§5) The above-mentioned supernatant (30 μL) was added to a 96 well plate (black, manufactured by Costar), a solution (15 μL) of 2% o-phthalaldehyde (manufactured by SIGMA) in methanol and 0.3M NaOH solution (170 μL) were added to each well, and the mixture was incubated at room temperature for 10 min. […] The plate was set on a microplate reader SpectraMax190 (manufactured by Molecular device) and the fluorescence intensity was measured at an excitation wavelength of 355 nm and a fluorescence wavelength of 460 nm.

[6] = molecular target: T2, chymase (native, human skin mast cell); experiment: inhibition; angiotensin I substrate, solution C, 37 C; recombinant 0.003 uM; conditions: tags: Calbiochem
Procedure: as §4, §5

chymase (recombinant) [7] = molecular target: T1, chymase (recombinant); experiment: inhibition; Suc-AAPF-MCA, solution C, 37 C; SPR ++; conditions: tags: SIGMA, expressed in yeast
Procedure: as §1

[8] = molecular target: T2, chymase (native, human skin mast cell); experiment: inhibition; angiotensin I substrate; recombinant 0.041 uM; conditions: tags: Calbiochem
Procedure: as §4, §5

chymase (recombinant) [9] = molecular target: T1, chymase (recombinant); experiment: inhibition; SPR ++; conditions: tags: SIGMA, expressed in yeast; remark: listed apart in the source
Procedure: as §3

chymase (recombinant) [10] = molecular target: T1, chymase (recombinant); experiment: inhibition; SPR ++; 0.027 uM in Table 6; conditions: tags: SIGMA, expressed in yeast; stem-loop (MFOLD)
Procedure: as §1
Chymase inhibitory activity was determined in the same manner as Example 3.

[11] = molecular target: T2, chymase (native, human skin mast cell); experiment: inhibition; angiotensin I substrate; recombinant 0.235 uM; conditions: tags: Calbiochem, stem-loop (MFOLD)
Procedure: as §4, §5

chymase [12] = molecular target: T3, chymase (Homo sapiens, UniProt P23946 P23946:22-247); experiment: inhibition; Suc-AAPF-MCA, 37 C, solution C; conditions: tags: recombinant, expressed in yeast, SIGMA
T3 sequence: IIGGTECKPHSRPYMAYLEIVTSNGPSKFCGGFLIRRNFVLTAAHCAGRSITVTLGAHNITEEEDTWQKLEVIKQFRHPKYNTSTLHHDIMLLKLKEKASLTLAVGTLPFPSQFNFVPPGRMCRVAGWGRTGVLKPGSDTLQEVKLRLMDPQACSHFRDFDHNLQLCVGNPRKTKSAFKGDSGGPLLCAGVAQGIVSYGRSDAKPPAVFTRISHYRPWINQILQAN
Procedure: as §3, §2

chymase [13] = molecular target: T3, chymase; experiment: inhibition; angiotensin I; recombinant 0.361; conditions: tags: human skin mast cell, Calbiochem
Procedure: as §4, §5

B1: SEQ 39 (ssRNA)
RNA: GGGAGCAGGAGAGAGGUCAGAUGGUUACGGAUAGAGUUAAGGUAACGGUACGGCCUAUGCGUGCUAGUGUGA
modifications: 2'-F pyrimidines
Q: Does B1 bind (chymase (recombinant) [1])?
A: binds

Q: How did the IC50 (chymase (recombinant) [2]) turn out when GGGUUAGAUAGAGUUAAAAACCC (ssRNA, 2'-F pyrimidines; 5' 40 kDa branched PEG; 3' idT) [56(17)] was run?
A: 58 nM

B2: 56(27) (ssRNA)
RNA: GGGUUAGAUAGAGUUAAAAACCC
modifications: PEG-G(M)G(M)G(M)U(F)U(F)AG(M)A(M)U(F)A(M)GAG(M)U(F)U(F)A(M)A(M)A(M)A(M)A(M)C(F)C(F)C(F)-idT (M=2'-OMe, F=2'-F)
Q: Which IC50 (chymase (recombinant) [3]) does the source give for B2 here?
A: 84 nM

B3: SEQ 69 (ssRNA)
RNA: AAAGGGUUAGAUAGAGUUAAAAACCC
modifications: PEG-A(M)A(M)A(M)G(M)G(M)G(M)U(F)U(F)AG(M)A(M)U(F)A(M)GAG(M)U(F)U(F)A(M)A(M)A(M)A(M)A(M)C(F)C(F)C(F)-idT (M=2'-OMe, F=2'-F)
Q: For B3, which IC50 (chymase (recombinant) [3]) is on record?
A: 91 nM

B4: 72(2) (mixed)
mixed: GGGTTAGAUAGAGTUAAAAACCC
modifications: idT-G(M)G(M)G(M)ttAsG(M)aU(F)A(M)GAG(M)tU(F)A(M)A(M)A(M)A(M)A(M)ccc-idT (lower case DNA, s=PS)
Q: For B4, which IC50 (chymase (recombinant) [4]) is on record?
A: 14 nM

Q: And the IC50 [5]?
A: 76 nM

B5: 72(8) (mixed)
mixed: GGGTTAGAUAGAGTUAAAAACCC
modifications: B-idT-G(M)G(M)G(M)ttAG(M)aU(F)A(M)GAG(M)tU(F)A(M)A(M)A(M)A(M)A(M)ccc-idT (lower case DNA, B=biotin)
Q: B5 was tested. Which IC50 (chymase (recombinant) [3]; label: biotin) did it give?
A: 18 nM

B6: SEQ 4 (ssRNA)
RNA: GGGACGGUAGGAAUUCGUCCAUUCUACAGAUAGAGAUAAAGUAGAAUUUAACAAAACAUAGAAGAGCGGCCGC
modifications: 2'-F pyrimidines
Q: What does the source list for B6?
A: IC50 [6]: 31 nM; IC50 (chymase (recombinant) [7]): 49 nM

B7: SEQ 13 (ssRNA)
RNA: GGGACGGUAGGAAUUCCGCAACCAUCCCGUAACUAUGGUUAGAUAGAGUUAAAAACCAUAGAAGAGCGGCCGC
modifications: 2'-F pyrimidines
Q: What does the source list for B7?
A: IC50 [8]: 74 nM; IC50 (chymase (recombinant) [9]): 58 nM

Q: Which IC50 (chymase (recombinant) [10]) does the source give for GGGUUAGAUAGAGUUAAAAACCC (ssRNA, 2'-F pyrimidines) [SEQ 56] here?
A: 46 nM

Q: And the IC50 [11]?
A: 508 nM

Q: Which results are given for GGGUUAGAUAGAGUUAAAAACCC (ssRNA, 2'-F U and C; 2'-OMe 1-3,7,8,10,13,16-20) [56(21)]?
A: IC50 (chymase [12]): 45 nM; IC50 (chymase [13]): 722 nM

From patent publication US9012420B2, “Aptamer for chymase, and use thereof” (Ribomic Inc., priority 2009, dated 2015)
